In this test the test system is Non-typeable Haemophilus influenzae biofilms. The test can be described thus: NTHI in vitro biofilm formation, additive present from seeding (LIVE/DEAD, CLSM, COMSTAT). It is filed as cell-based. To be noted: RNase A present from seeding, 16 h.

B1: RNase A: ribonuclease (protein, UniProt P61823 27-150, looked up)
Ribonuclease pancreatic: KETAAAKFERQHMDSSTSAASSSNYCNQMMKSRNLTKDRCKPVNTFVHESLADVQAVCSQKNVACKNGQTNCYQSYSTMSITDCRETGSSKYPNCAYKTTQANKHIIVACEGNPYVPVHFDASV
On to B1, for which the NTHI biofilm formation result is reported as “stimulated biofilm formation in a dose-dependent manner”.

These data come from US20210139610A1, “COMPOSITIONS AND METHODS FOR MEDIATING EPS” (priority 2018, published 2021).
